Patent publication US20250002585A1 (CENTESSA PHARMACEUTICALS UK, published 2025)

Target: T1, mouse CD47 (SPR analyte) (mouse, UniProt Q61735 19-140, limits assumed)
T1 sequence (looked up): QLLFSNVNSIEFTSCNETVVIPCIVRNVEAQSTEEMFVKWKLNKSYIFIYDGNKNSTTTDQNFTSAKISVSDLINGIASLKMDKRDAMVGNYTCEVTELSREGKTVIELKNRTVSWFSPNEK
Assay: SPR (Biacore T200), 25 C; Fab captured by anti-human Fab, mouse CD47 as analyte; steady state
Protocol: HBS-P+ supplemented with 0.1% BSA was used as running buffer as well as for ligand and analyte dilutions. […] Ligand was captured at a flow rate of 10 μl/min to give an immobilisation level (RL) of ˜ 60 RU. The surface was then allowed to stabilise. Multi-cycle kinetic data was obtained using either human or mouse CD47 as the analyte injected at a flow rate of 30 μl/min. […] For each concentration, the association phases were monitored for 180 seconds, and the dissociation phase was measured for 300 seconds. Regeneration of the sensor chip surface was conducted between cycles using 10 mM glycine pH 2.1. The signal from the reference channel Fcl (no ligand captured) was subtracted from that of Fc2-4 to correct for bulk effect and differences in non-specific binding to a reference surface. The signal from each CD47 blank run (ligand captured but no antigen) was subtracted to correct for differences in surface stability. […] Mouse CD47 binding was analysed using steady state analysis.

B1: positive control anti-CD47 Fab (recombinant Fab using the variable domain sequences used in LB101) (Fab, V domains shown)
VH: QVQLVQSGAEVKKPGESLKISCKGSGYTFTNYYIFWVRQMPGKGLEWMGIINPVDGDTNYNPSFQGQVTISADKSISTAYLQWSSLKASDTAMYYCARGGYTMDRWGQGTLVTVSS
VL: DIVMTQSPLSLPVTPGEPASISCRSSQSLLHSNGYNYLHWYLQKPGQSPQLLIYKVSNRFSGVPDRFSGSGSGTDFTLKISRVEAEDVGVYYCFQNTHTPRTFGGGTKVEIK
Kd: 165 nM
